Data taken from patent US20120058906A1 (published 2012).
Each block holds one binder with its values, some of them ahead of it.

Assays:
[1] = target: T1, rHuman IGF-1 sR (insulin-like growth factor-1 soluble receptor), CF (R&D Systems Cat#391-GR) (human, UniProt P08069 31-932); test: MSD ECL titration, Fab 595.8 nM, blank 285
T1 construct: Bought soluble receptor; also called IGF-R1

[2] = target: T2, Recombinant Human DLL4 (R&D Systems Cat#1506-D4/CF) (human, UniProt Q9NR61 27-524); test: MSD ECL titration, Fab 595.8 nM, blank 285
T2 construct: Bought recombinant protein; also called rHuman DLL4; delta-like protein 4

[3] = target: T3, rHuman ErbB2/Fc Chimera, CF (R&D Systems Cat#1129-ER) (human, UniProt P04626 23-652); test: MSD ECL titration, Fab 595.8 nM, blank 285
T3 construct: Bought Fc chimera; also called HER2/neu; Fc part of the bought chimera not given

[4] = target: T4, rHuman HGF R/c-MET/Fc Chimera, CF (R&D Systems Cat#358-MT/CF) (human, UniProt P08581 25-932); test: MSD ECL titration, Fab 595.8 nM, blank 285
T4 construct: Bought Fc chimera; also called HGF R/Fc; Fc part of the bought chimera not given

[5] = target: T5, rHuman IGF-1 sR, (IGF-1 sR), CF (R&D Systems Cat#391-GR) (human, UniProt P08069 31-932); test: MSD ECL multi-spot plate; Fab 130 nM; blank spot 1153
T5 construct: also called insulin-like growth factor-1 soluble receptor; IGF-R1

[6] = target: T6, Recombinant Human DLL4 (R&D Systems Cat#1506-D4/CF) (human, UniProt Q9NR61 27-524); test: as above
T6 construct: also called delta-like protein 4

[7] = target: T7, rHuman EGF R/Fc Chimera, CF (R&D Systems Cat#344-ER) (human, UniProt P00533 25-645); test: as above
T7 construct: also called epidermal growth factor receptor; Fc part of the bought chimera not given

[8] = target: T8, rHuman HGF R/c-MET/Fc Chimera, CF (R&D Systems Cat#358-MT/CF) (human, UniProt P08581 25-932); test: as above
T8 construct: also called HGF R/Fc; hepatocyte growth factor receptor; Fc part of the bought chimera not given

[9] = target: T9, rHuman Notch-1/Fc Chimera, CF (R&D Systems Cat#3647-TK) (human, UniProt P46531 19-526); test: as above
T9 construct: Fc part of the bought chimera not given

[10] = target: T10, rHuman CD44/Fc Chimera, CF (R&D Systems Cat#3660-CD) (human, UniProt P16070 21-220); test: as above
T10 construct: Fc part of the bought chimera not given

[11] = target: T11, rHuman Erythropoietin R/Fc Chimera, CF (R&D Systems Cat#963-ER) (human, UniProt P19235 25-250); test: ECL (MSD multi-spot), antigen spotted on plate; Fab 22 nM; blank spot 289
T11 construct: Bought reagent; also called EPO R/Fc; Epo R; Fc part of the bought chimera not given
T11 sequence: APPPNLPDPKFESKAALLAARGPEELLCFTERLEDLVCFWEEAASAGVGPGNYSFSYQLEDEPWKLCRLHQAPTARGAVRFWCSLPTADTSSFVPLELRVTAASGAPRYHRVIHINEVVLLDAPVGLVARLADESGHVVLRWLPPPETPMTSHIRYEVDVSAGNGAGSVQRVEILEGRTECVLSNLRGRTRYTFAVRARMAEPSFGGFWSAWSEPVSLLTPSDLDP

[12] = target: T12, Recombinant Human DLL4 (R&D Systems Cat#1506-D4/CF) (human, UniProt Q9NR61 27-524); test: as above
T12 construct: Bought reagent; also called delta-like protein 4

[13] = target: T13, rHuman ErbB2/Fc Chimera, CF (R&D Systems Cat#1129-ER) (human, UniProt P04626 23-652); test: as above
T13 construct: Bought reagent; also called HER2/neu; human epidermal growth factor 2 receptor; Fc part of the bought chimera not given

[14] = target: T14, rHuman EGF R/Fc Chimera, CF (R&D Systems Cat#344-ER) (human, UniProt P00533 25-645); test: as above
T14 construct: Bought reagent; also called epidermal growth factor receptor; Fc part of the bought chimera not given

[15] = target: T15, rHuman HGF R/c-MET/Fc Chimera, CF (R&D Systems Cat#358-MT/CF) (human, UniProt P08581 25-932); test: as above
T15 construct: Bought reagent; also called HGF R/Fc; hepatocyte growth factor receptor; Fc part of the bought chimera not given

[16] = target: T16, rHuman Notch-1/Fc Chimera, CF (R&D Systems Cat#3647-TK) (human, UniProt P46531 19-526); test: as above
T16 construct: Bought reagent; Fc part of the bought chimera not given

[17] = target: T17, rHuman CD44/Fc Chimera, CF (R&D Systems Cat#3660-CD) (human, UniProt P16070 21-220); test: as above
T17 construct: Bought reagent; Fc part of the bought chimera not given

[18] = target: T18, rHuman IGF-1 sR (IGF-1 sR), CF (R&D Systems Cat#391-GR) (human, UniProt P08069 31-932); test: as above
T18 construct: Bought soluble receptor; also called insulin-like growth factor-1 soluble receptor; IGF-R1

[19] = target: T19, rHuman P-Cadherin/Fc Chimera, CF (R&D Systems Cat#861-PC) (human, UniProt P22223 108-654); test: as above
T19 construct: Bought reagent; also called CDH3; Fc part of the bought chimera not given
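Further: blank spot per well as comparator with Hit at signal to blank ratio of 4 or more.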

ECL signal [1]: 335
ECL signal [2]: 17200
ECL signal [3]: 321
ECL signal [4]: 353
B1: Fab VH1-46_IGHD6-6*01_IGHJ1*01 & L6_IGKJ1*01 (Fab, V domains shown)
VH: QVQLVQSGAEVKKPGASVKVSCKASGYTFTSYYMHWVRQAPGQGLEWMGIINPSGGSTSYAQKFQGRVTMTRDTSTSTVYMELSSLRSEDTAVYYCAREEYSSSSAEYFQHWGQGTLVTVSS
VL: not shown
notes: Expressed in E. coli as Fab: heavy chain with CH1 plus Flag and His tags from Plasmid A, kappa light chain constant region from Plasmid C; also called Fab No. 1

ECL signal [5]: 1970 ECL signal
ECL signal [6]: 7740 ECL signal
ECL signal [7]: 1750 ECL signal
ECL signal [8]: 1880 ECL signal
ECL signal [9]: 1760 ECL signal
ECL signal [10]: 1750 ECL signal
B2: Fab VH1-8_IGHD2-2*01_IGHJ6*01 & L12_IGKJ1*01 (Fab, V domains shown)
VH: QVQLVQSGAEVKKPGASVKVSCKASGYTFTSYDINWVRQATGQGLEWMGWMNPNSGNTGYAQKFQGRVTMTRNTSISTAYMELSSLRSEDTAVYYCARGGYCSSTSCYADYYYYYGMDVWGQGTTVTVSS
VL: not shown

ECL signal [11]: 2240
ECL signal [12]: 342
ECL signal [13]: 363
ECL signal [14]: 312
ECL signal [15]: 203
ECL signal [16]: 389
ECL signal [17]: 317
ECL signal [18]: 347
ECL signal [19]: 215
B3: Fab VH1-46_IGHD3-10*01_IGHJ4*01 & B3_IGKJ1*01 (Fab, V domains shown)
VH: QVQLVQSGAEVKKPGASVKVSCKASGYTFTSYYMHWVRQAPGQGLEWMGIINPSGGSTSYAQKFQGRVTMTRDTSTSTVYMELSSLRSEDTAVYYCAREYYYGSGSYYNDYFDYWGQGTLVTVSS
VL: not shown
notes: also called IGHV1-46*01
